Test results: patent publication US20240207313A1

Key:
[1] = biological target: T-cell surface glycoprotein CD4 [Homo sapiens] (Homo sapiens) (UniProt P01730); assay: cell-based or functional assay
[2] = biological target: T-cell receptor with TCR Vbeta 7.1 chain (H. sapiens rearranged TCR Vbeta 7.1) (H. sapiens); assay: cell-based or functional assay
Chain of T-cell receptor with TCR Vbeta 7.1 chain (H. sapiens rearranged TCR Vbeta 7.1) (H. sapiens) (A0A577 whole entry, form in doubt): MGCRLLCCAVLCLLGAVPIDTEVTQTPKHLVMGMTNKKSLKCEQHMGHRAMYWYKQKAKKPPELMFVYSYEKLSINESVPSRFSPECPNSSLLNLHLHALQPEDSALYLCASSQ

## CART20 anti-CD20 chimeric antigen receptor (scFv of monoclonal antibody Leu16 in the third-generation CAR backbone), expressed on transduced human T cells
[1]
  CD4-positive cells remaining in the culture after CAR transduction (flow cytometry): 45%
[2]
  TCR Vβ7.1-positive cells remaining five days after CAR transduction (flow cytometry): 1.2%
